# Assay: yeast display, Sf9 membrane polyspecificity reagent, FACS + sequencing; frameworks hold sequencing errors
# In short: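 Galactose-induced (36–48 hours) yeast carrying a synthetic nanobody display library were exposed to 10% biotinylated, detergent-solubilized Sf9 membrane reagent at 4 °C for 1 hour. FACS followed streptavidin microbead enrichment, using low and high (top ~1%) gates for expression (anti-HA) and reagent binding (streptavidin). Colony PCR, MiSeq 2 × 250 sequencing and CDR-length filtering followed. Labels for polyreactivity reflect the gate of origin.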
row,Sequence,polyreactivity (PSR sort gate)
1,QDQLVESGGGLFQAGGSLRLSCAASGGIFGFYAMGWSRKAPGKERELVAAISWGGGSTYYADSVKGRFTISRDNAKNTVYLQMNSLKPEDTAFYYCAADPALTIEYGYWGQVTQVTVSS,low polyreactivity
2,QVQLVESGGGLVQAGGSLRLSCAPSGRTLRGYAMGWYRQAPGKEREFVAAISSRGGSTYYADSVKGRFTISRDNAKNTVYLQMHSLKPEDTAVYYCAALRPLFATSHARDYWGQGTQVTVSS,high polyreactivity
3,QVQLVESGGGLVQARGSLRLSFAASGYTLRPNGMGWYRQAPGKERELVAAISSGGSTYYADSVKGRFTISRDNAKNTVYLQLNSLKPEDTAVSYCAAEYWYDYWVQGTQVTVSS,low polyreactivity
4,QVQLVESGGGLVQAGGSLRLSCAASGFTFYRNAMGWYRQAPGKERELVAGISKRGGSTYYADSVKGRFTISRDNAKNTVYLQMNSLKPEDTAVYYCAAYKQYRFYRYDYWGQGTQVTVSS,high polyreactivity
5,QVQLVESCGGLVHAGGSLRLSCAASGITLKWNDMGLYRQAPGKEREFVAAITGSTGSTFYADSVKGRFTISRDNAKNTVYLQMNSLKPEDTAVYYCAAGPWFYYWGQGTQVTVSS,low polyreactivity
6,QVQLVESGGGLVQAGGSLRLSCAASGSIFYFNAMGWYRPAPGKERELVAAINISGSSTSYADSVKGRFTISRDNAKNTVYLQMNSLKPEDTAVYYCAAEDEPRILIVRVWDYYWGQGTQVTVSS,low polyreactivity
7,QVQLVESGGGLVQAGGSLRLICAASGFIFTTYAMGWYRQAPGKEREVVAAISSSGTTYYADSVKGRFTISRDNAKNTVYLQMNSLKPEDTAVYYCAARRQFRSYQQRLYYWGQGTQVTVSS,low polyreactivity
8,QVQLVESGGGLVQAGGSLRLSCAASGSIFYRNAMGWYRQTPGKERELVAAISSDGSTNYADSVKGRFTFSLDNAKNTVYLQMNRLNPEYTAVYYCAAPWTQFLDYWGQGTQVTVSS,low polyreactivity
9,QVQLVESGGGLVQAGGSLRLSCAASGFTIHYYVMVWYRQAPGKERELVAAIRRGGSTSYADSVKGRFTISRDNAKNTVYLQMNSLKPEDTAVYYCAASYVSGERYDYWGQGTQVTVSS,low polyreactivity
10,QVQLVESGGGLDQAGGSLPLSCAASGSTFPGNAMGWYSQARGKERELVARINDGADTNYADSVKGRFTISRDNAKNTVYLQMNSLKPEDTAVYYCAADKRGTVYLSSFWMDYWGQGTQVTVSS,low polyreactivity
11,QVQLVESGGGLVQAGGSLLLSCAASGSTFYKNAMGWYRQAPGKERELVAAISSGGSTYYADSVKGRFTISRDNAKNTVYLQMNSLKPEDTAVYYCAADYYYIVDYWGQGTQVTVSS,high polyreactivity
12,QVQLVESGGGFVQAGGSLRLSCAASGSIFVTNAMGWYRQAPGKDRELVAAISVSGGSTYYADSVKGRFTISRDNAKNTVYLQMNSLKPEDTAVYYCNTVRSPPGHDYWGLGTQVTVSS,low polyreactivity
13,QVQLVESGGGLVQAGGSLRLSCAASGRTFWYYAMGWSRQAPGKERELVAGITFTGGRTYYADSVKGRFTISRDNAKNTVYLQMNSLKPEDTAVYYCAAAGLDVGRKDRDGYWGQGTQVTVSS,low polyreactivity
14,QVQLVESGGGLVQAGGSLRLSCAASGSIFQYYLIGWYRKAPGKERELVAAIRRSGTTYYADSVKGRFTISRDNAKNTVYLQMNSLKPEDTAVYYCNKVRGQEQSNYDYWGQGTQVTVSS,low polyreactivity
15,QVQLVESGGGLVQAGGSLRLSCAASGRIFTYYAMGWYRQAPGKERELVASISKSSGSTYYADSVKGRFTISRDNAKNTVYLQMNSLKPEDTAVYYCATDPYVRRSPSWYDYWGQGTQVTVSS,low polyreactivity
16,QVQLVESGGGLVQAGGSLRLSCAASGITFWVYVMGWYRQAPGKEREFVADISSGAGTTYYADSVKGRFTISRDNAKNTVYLQMNSLKPEDTAVYYCAARRWWPQWYDYWGQGTQVTVSS,high polyreactivity
17,QVQLVESGGGLVQAGGSLRLSCAASGRTFAFYTMGWYRQAPGKEREFVAAISWSGGSTHYADSVKGRFTISRDNAKNTVYLQMNSLKQEDSAVYYCAAGPFYRFTDGRYKTLDYWGQGTQVTVSS,high polyreactivity
18,QVQLVESGGGLVQAGGSLRLSCDASVSIFVANAMGWSRQATGKERELVAAITGRGSRTYYADSVKGRFTISRDNAKNTVYLQMNSLKPEDTAVYYCADRYTNYGGYYWGQGTQVTVSS,high polyreactivity
19,QVQLVESGGGLVQAGGSLRLSCAASGGIFKAYAMGWYRQAPGKERELVAVITIGGRTTYADSVKGRFTISRDNAKNTVYLQMNSLKPEDTAVYYCAKTNYNWLSTAEHDYWGQGTQVTVSS,low polyreactivity
20,QVQLVESGGGLVQAGGSLRLSCAASGSIFWYNAKGWYRQAPGKERELVAAINWGGGSTYYADSVKGRFTISRDNAKNTVYLEMNSLTPEDTAVYYCNADQQVDHATVSQRDGYDYWGQGTQVTVSS,low polyreactivity
21,QVQLVESGGGLDQAGGSLRLSCAASGFIFYQNAMGWYKQAPGKERELFAAISTTGSRTYYADSVKGRFTISRDNPKNTVYLQMNRLKPVDTAVYYCATPLQQEGDWGQGTQVTVSS,high polyreactivity
22,QVQLVESGGGLVQAGGSLRLSCAASGRTFGGYAMGWYRQAPGKERELVAAITWRGGRTFYADSVKGRFTISRDNAKNTVYLQMNSLKPEDTAVYYCNVVKYGPRYDYWGQGTQVTVSS,high polyreactivity

row,Sequence,polyreactivity (PSR sort gate)
1,QVQLEESGGGLVQAGGSLRLSCAASGSIIYAYAMGWSRQAPGKERELVDGIRDGGSTYYADSVKWRFTISRDNAKNTVYLQMNSLKPADTAVYYCAAGPRIRDDYWGQGTQVTVSS,low polyreactivity
2,QVQLVESGGGLVQAGGSLRLSCAASGRIFHYNAMGWYRQARGKERQLVAAITGGGGSTYYADSVKGRFTISRDNAKNTVYLEKNSLKPEDTAVYYCAKRYRSSSIRVYYWGLGTQVTVSS,high polyreactivity
3,QVQLHESGGGLLQAGGGLRLSCAASGSISSTGFMGWYRQAPGKEREPVAAIAPGTTTYYADSVKGRFTISRDNAKNTVYLQMNSLRPEDTAVYYCAVFTDNRVAFLYWGQGTQVTVSS,low polyreactivity
4,QVQLVESGGGLVQAGGSLRLSCAASGRIFNQYGMGWYRQAPGKERELVAAIRSGDSTNYADSVKGRFTISRDNAKNTVYLQMNSLKPEDTAVYYCKAVPSQHDEFDYWGQGTQVTVSS,low polyreactivity
5,QVQLVESGGGLVQAGGSLRLSCAASGRTFTPYDMGWYRPAPGKERELVAAITWRGGSTYYADSVKGRFTISRDNAKNTVYLQMNSLKPEDTAVYYCAKDRWTYAFRVGYGYWGQGTQVTVSS,high polyreactivity
6,QVQLVESGGGLVQAGGSLRLSCAASGSTFAVYAMGWYRQPPGKERELVAAITWSGGSTYYADSVKGRFTISRDNAKNTVYLQMNSLKPEDTAVYYCAAVVVRFIYVYFEFEWGQGTQVTVSS,low polyreactivity
7,QVQLVESGGGLLQAGGSLRLSCAASGRTFRAYTMGWYRQAPGKERELVAAISTPGGSTYYADSVKGRFTISRDNAKNTVYLQMNSLKPEDSAVYYCAAGTFYYWLSYDYWGQGTQVTVSS,low polyreactivity
8,QVQLVESGGGLVQAGGSLRLSCAASGSIFAYYAMGWYRQAPGKEREFVAAISKRGGRTYYADSVKGRFTISRDNAKNTVYLQMNSLKPEDTAVYYCAAPWAYPRSGGDYWGQGTQVTVSS,high polyreactivity
9,QVQLVESGGGLVQAGVSLRLSCAASGSTFPVNTMGWYRQAPGKERELVAAISWSGGRTYYADSVKGRFTISRDNAKNNVYLQMNILKPEDTAVYYCAADIGSYYYYTYYYWGQGSQVTVSS,high polyreactivity
10,QVQLVESGGGLVQAGGSLRLSCAASGITLYDNAMGWYRQAPGKERELVAAINVNDVSTYYADSVKGRFTISRDNAKNTVYLQMNSLKPEDTAVYYCAADSLYYGIGYWVVRYDYWGQGTQVTVSS,low polyreactivity
11,QVQLVESGGGLVQAGGSLRLSCAASGNTFYGYAMGWYRQAPGKERELVASITLSGDSTYYADSVKGRFTISRDNAKNTVYLQMNSLKPEDTAVYYCGGVYTYPLGYYHYTYDYWGQGPQVTVSS,low polyreactivity
12,QVQLVESGGGLVQAGGSLRLSCAASGRTGKNAMGWYRQAPVKERELVAAIRYNGGSTYYADSVKGRFTISRDNAKNTVYLQMNSLKPEDTAVYYCAAASRRHNGSAFNYWGQGTLVTVSS,high polyreactivity
13,QVQLVESGGGLVQAGGSLRLSCAASGRTFTEYAMGWYRQAPGKERELVARISIGDSTYYADSVKGRFTISRDNAKNTVYLQMNSLKPEDTAVYYCNAEYSRSYRYDECYWGQGTQVTVSS,low polyreactivity
14,QVQLVESGGGLVQAGGSLRLSCAASGTIFIVNAMGWYRQAPGKERELVAAITQGDGSTYYADSVKGRFTISRDNAKNTVYLQMNSLKPEDTAVYYCAVGDLVAYTWQEYNYWGQGTQVNVSS,low polyreactivity
15,QVQLVESGGGLVQAGGSGRLSCAASGRIFAGYAMGWYIQAPGKERELVAAISSSGGSTYYSDSVKGRFTISRDNAKNSVYLQMNSLKPEDTAVYYCADRGKRNTPQRFYYWGQGTQVTVSS,high polyreactivity
16,QVQLVESGGGLVQPGGSLRISCAASGFTFVYYVMGWYRQAPGKERELVAAINAGGGSTYYADSVKGRFTISRDNAKNTVYLQMNSLKPEDTAVYFCNARVRVRLGRNWSSYYYWGQGTEVTVSS,high polyreactivity
17,QVQLVESGGGLVQAGGSLRLSFAASGLNFRVYAMGWYTQAPGTERELVAAISRGGSTYYADSVKGRFTISRDNAKNTVYLQMNSLKPEDTAVYYCAAVFVHRGYYYWGQGTQVTVSS,high polyreactivity
18,QVQLVESGGGLGQAGGSLRLSCAASGSTLNYYAMGWYTQAPGKERELVAAITWSGGSTSYADSVKGRFTISRDNAKNTVYLQMNSLKPEDTAVYYCATDFPTVQLYDTDWLSSDMGYWGQGTQVTVSS,low polyreactivity
19,QVQLVESGGGLVQAGGSLRLSCAASGRILVPYAMGWYRQAPGKERELVDAISSGGSTKYADSVKGRFTISRDNAKNTVYLQMNSLKPEDTAVYYCASRIGSGSYPYPRYDYWGQGTQVTVSS,high polyreactivity
20,QDQLVESGGGLVQAGGSLRLSCAASGSTFYIYAMGWNIQAPGKERELVAAISTTDGTTYYADSVKGRFTISRDNAKKTVYLQMNSLKPEDTAVYYCAAEWFGSVQPAYDYWGQVTQVTVSS,high polyreactivity
21,QVQLQESGGGLMQAGGSLRLSCTASGTISDVRVMGWYRQAPGRERELVATISYVTITYYADSVKGRFTISRDSEKHRVSADDEPETGRYRGVLLRYYWGLGTQVTVSS,low polyreactivity
